Assay results taken from patent US20220169728A1 (AB THERAPEUTICS, published 2022).

target: CD3 (Homo sapiens (Human), UniProt P07766 23-207; P04234 22-171; P09693 23-182); test: cell-based or functional assay
Sequence (P07766 23-207 limits assumed, chain 1 of 3): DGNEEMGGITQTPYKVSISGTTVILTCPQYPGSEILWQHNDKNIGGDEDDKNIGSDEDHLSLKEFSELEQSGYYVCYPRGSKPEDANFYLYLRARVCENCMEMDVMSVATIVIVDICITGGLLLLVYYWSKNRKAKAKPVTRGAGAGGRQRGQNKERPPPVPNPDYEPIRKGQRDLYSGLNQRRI
Sequence (P04234 22-171 limits assumed, chain 2 of 3): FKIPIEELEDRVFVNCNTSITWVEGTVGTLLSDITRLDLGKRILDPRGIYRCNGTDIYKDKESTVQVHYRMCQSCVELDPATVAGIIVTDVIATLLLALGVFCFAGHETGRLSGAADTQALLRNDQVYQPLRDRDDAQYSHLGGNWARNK
Sequence (P09693 23-182 limits assumed, chain 3 of 3): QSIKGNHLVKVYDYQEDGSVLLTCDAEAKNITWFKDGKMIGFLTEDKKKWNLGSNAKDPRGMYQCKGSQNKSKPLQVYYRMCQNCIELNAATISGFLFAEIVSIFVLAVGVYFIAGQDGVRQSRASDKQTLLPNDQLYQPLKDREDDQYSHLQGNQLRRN

Row | Binder | Function % 0.025 ug/ml (T cell activation, CD69 on Jurkat cells with Raji cells, against the unmutated baseline) [%] | Function % 2 ug/ml (T cell activation, CD69 on Jurkat cells with Raji cells, against the unmutated baseline) [%]
1 | CD20/CD3 BsMab with common VL (SEQ ID NO: 3) N93P (bispecific antibody, V domains shown) VH 1: QVQLQQPGAELVKPGASVKMSCKASGYTFTSYNMHWVKQTPGRGLEWIGAIYPGNGDTSYNQKFKGKATLTADKSSSTAYMQLSSLRSEDSAVYYCARSTYYGGDWYFNVWGAGTTVTVSA VH 2: EVQLQESGAELARPGASVKMSCKASGYTFTSYTMHWVKQRPGEGLEWIGYINPSSGYTKYNQKFKDKATLTADKSSSTAYMELSSLTSEDSAVYYCARWQDYDVYFDYWGEGTTLTVSS VL: QIVLSQSPAILSASPGEKVTMTCRASSSVSYIHWFQQKPGSSPKPWIYATSNLASGVPVRFSGSGSGTSYSLTISRVEAEDAATYYCQQWTSPPPTFGGGTKLEIKR | 9 | 51
2 | CD20/CD3 BsMab with common VL (SEQ ID NO: 3) P95T (bispecific antibody, V domains shown) VH 1: QVQLQQPGAELVKPGASVKMSCKASGYTFTSYNMHWVKQTPGRGLEWIGAIYPGNGDTSYNQKFKGKATLTADKSSSTAYMQLSSLRSEDSAVYYCARSTYYGGDWYFNVWGAGTTVTVSA VH 2: EVQLQESGAELARPGASVKMSCKASGYTFTSYTMHWVKQRPGEGLEWIGYINPSSGYTKYNQKFKDKATLTADKSSSTAYMELSSLTSEDSAVYYCARWQDYDVYFDYWGEGTTLTVSS VL: QIVLSQSPAILSASPGEKVTMTCRASSSVSYIHWFQQKPGSSPKPWIYATSNLASGVPVRFSGSGSGTSYSLTISRVEAEDAATYYCQQWTSNPTTFGGGTKLEIKR | 13 | 52
3 | CD20/CD3 BsMab with common VL (SEQ ID NO: 3) H33L (bispecific antibody, V domains shown) VH 1: QVQLQQPGAELVKPGASVKMSCKASGYTFTSYNMHWVKQTPGRGLEWIGAIYPGNGDTSYNQKFKGKATLTADKSSSTAYMQLSSLRSEDSAVYYCARSTYYGGDWYFNVWGAGTTVTVSA VH 2: EVQLQESGAELARPGASVKMSCKASGYTFTSYTMHWVKQRPGEGLEWIGYINPSSGYTKYNQKFKDKATLTADKSSSTAYMELSSLTSEDSAVYYCARWQDYDVYFDYWGEGTTLTVSS VL: QIVLSQSPAILSASPGEKVTMTCRASSSVSYILWFQQKPGSSPKPWIYATSNLASGVPVRFSGSGSGTSYSLTISRVEAEDAATYYCQQWTSNPPTFGGGTKLEIKR | 16 | 93
4 | CD20/CD3 BsMab with common VL (SEQ ID NO: 3) N93Q (bispecific antibody, V domains shown) VH 1: QVQLQQPGAELVKPGASVKMSCKASGYTFTSYNMHWVKQTPGRGLEWIGAIYPGNGDTSYNQKFKGKATLTADKSSSTAYMQLSSLRSEDSAVYYCARSTYYGGDWYFNVWGAGTTVTVSA VH 2: EVQLQESGAELARPGASVKMSCKASGYTFTSYTMHWVKQRPGEGLEWIGYINPSSGYTKYNQKFKDKATLTADKSSSTAYMELSSLTSEDSAVYYCARWQDYDVYFDYWGEGTTLTVSS VL: QIVLSQSPAILSASPGEKVTMTCRASSSVSYIHWFQQKPGSSPKPWIYATSNLASGVPVRFSGSGSGTSYSLTISRVEAEDAATYYCQQWTSQPPTFGGGTKLEIKR | 10 | 62
5 | CD20/CD3 BsMab with common VL (SEQ ID NO: 3) P95Q (bispecific antibody, V domains shown) VH 1: QVQLQQPGAELVKPGASVKMSCKASGYTFTSYNMHWVKQTPGRGLEWIGAIYPGNGDTSYNQKFKGKATLTADKSSSTAYMQLSSLRSEDSAVYYCARSTYYGGDWYFNVWGAGTTVTVSA VH 2: EVQLQESGAELARPGASVKMSCKASGYTFTSYTMHWVKQRPGEGLEWIGYINPSSGYTKYNQKFKDKATLTADKSSSTAYMELSSLTSEDSAVYYCARWQDYDVYFDYWGEGTTLTVSS VL: QIVLSQSPAILSASPGEKVTMTCRASSSVSYIHWFQQKPGSSPKPWIYATSNLASGVPVRFSGSGSGTSYSLTISRVEAEDAATYYCQQWTSNPQTFGGGTKLEIKR | 11 | 17
6 | CD20/CD3 BsMab with common VL (SEQ ID NO: 3) N93A (bispecific antibody, V domains shown) VH 1: QVQLQQPGAELVKPGASVKMSCKASGYTFTSYNMHWVKQTPGRGLEWIGAIYPGNGDTSYNQKFKGKATLTADKSSSTAYMQLSSLRSEDSAVYYCARSTYYGGDWYFNVWGAGTTVTVSA VH 2: EVQLQESGAELARPGASVKMSCKASGYTFTSYTMHWVKQRPGEGLEWIGYINPSSGYTKYNQKFKDKATLTADKSSSTAYMELSSLTSEDSAVYYCARWQDYDVYFDYWGEGTTLTVSS VL: QIVLSQSPAILSASPGEKVTMTCRASSSVSYIHWFQQKPGSSPKPWIYATSNLASGVPVRFSGSGSGTSYSLTISRVEAEDAATYYCQQWTSAPPTFGGGTKLEIKR | 12 | 80
7 | CD20/CD3 BsMab with common VL (SEQ ID NO: 3) P95A (bispecific antibody, V domains shown) VH 1: QVQLQQPGAELVKPGASVKMSCKASGYTFTSYNMHWVKQTPGRGLEWIGAIYPGNGDTSYNQKFKGKATLTADKSSSTAYMQLSSLRSEDSAVYYCARSTYYGGDWYFNVWGAGTTVTVSA VH 2: EVQLQESGAELARPGASVKMSCKASGYTFTSYTMHWVKQRPGEGLEWIGYINPSSGYTKYNQKFKDKATLTADKSSSTAYMELSSLTSEDSAVYYCARWQDYDVYFDYWGEGTTLTVSS VL: QIVLSQSPAILSASPGEKVTMTCRASSSVSYIHWFQQKPGSSPKPWIYATSNLASGVPVRFSGSGSGTSYSLTISRVEAEDAATYYCQQWTSNPATFGGGTKLEIKR | 19 | 92
8 | CD20/CD3 BsMab with common VL (SEQ ID NO: 3) N93F (bispecific antibody, V domains shown) VH 1: QVQLQQPGAELVKPGASVKMSCKASGYTFTSYNMHWVKQTPGRGLEWIGAIYPGNGDTSYNQKFKGKATLTADKSSSTAYMQLSSLRSEDSAVYYCARSTYYGGDWYFNVWGAGTTVTVSA VH 2: EVQLQESGAELARPGASVKMSCKASGYTFTSYTMHWVKQRPGEGLEWIGYINPSSGYTKYNQKFKDKATLTADKSSSTAYMELSSLTSEDSAVYYCARWQDYDVYFDYWGEGTTLTVSS VL: QIVLSQSPAILSASPGEKVTMTCRASSSVSYIHWFQQKPGSSPKPWIYATSNLASGVPVRFSGSGSGTSYSLTISRVEAEDAATYYCQQWTSFPPTFGGGTKLEIKR | 11 | 70
9 | CD20/CD3 BsMab with common VL (SEQ ID NO: 3) N93V (bispecific antibody, V domains shown) VH 1: QVQLQQPGAELVKPGASVKMSCKASGYTFTSYNMHWVKQTPGRGLEWIGAIYPGNGDTSYNQKFKGKATLTADKSSSTAYMQLSSLRSEDSAVYYCARSTYYGGDWYFNVWGAGTTVTVSA VH 2: EVQLQESGAELARPGASVKMSCKASGYTFTSYTMHWVKQRPGEGLEWIGYINPSSGYTKYNQKFKDKATLTADKSSSTAYMELSSLTSEDSAVYYCARWQDYDVYFDYWGEGTTLTVSS VL: QIVLSQSPAILSASPGEKVTMTCRASSSVSYIHWFQQKPGSSPKPWIYATSNLASGVPVRFSGSGSGTSYSLTISRVEAEDAATYYCQQWTSVPPTFGGGTKLEIKR | 33 | 95
10 | CD20/CD3 BsMab with common VL (SEQ ID NO: 3) P95V (bispecific antibody, V domains shown) VH 1: QVQLQQPGAELVKPGASVKMSCKASGYTFTSYNMHWVKQTPGRGLEWIGAIYPGNGDTSYNQKFKGKATLTADKSSSTAYMQLSSLRSEDSAVYYCARSTYYGGDWYFNVWGAGTTVTVSA VH 2: EVQLQESGAELARPGASVKMSCKASGYTFTSYTMHWVKQRPGEGLEWIGYINPSSGYTKYNQKFKDKATLTADKSSSTAYMELSSLTSEDSAVYYCARWQDYDVYFDYWGEGTTLTVSS VL: QIVLSQSPAILSASPGEKVTMTCRASSSVSYIHWFQQKPGSSPKPWIYATSNLASGVPVRFSGSGSGTSYSLTISRVEAEDAATYYCQQWTSNPVTFGGGTKLEIKR | 96 | 97
11 | CD20/CD3 BsMab with common VL (SEQ ID NO: 3) N93T (bispecific antibody, V domains shown) VH 1: QVQLQQPGAELVKPGASVKMSCKASGYTFTSYNMHWVKQTPGRGLEWIGAIYPGNGDTSYNQKFKGKATLTADKSSSTAYMQLSSLRSEDSAVYYCARSTYYGGDWYFNVWGAGTTVTVSA VH 2: EVQLQESGAELARPGASVKMSCKASGYTFTSYTMHWVKQRPGEGLEWIGYINPSSGYTKYNQKFKDKATLTADKSSSTAYMELSSLTSEDSAVYYCARWQDYDVYFDYWGEGTTLTVSS VL: QIVLSQSPAILSASPGEKVTMTCRASSSVSYIHWFQQKPGSSPKPWIYATSNLASGVPVRFSGSGSGTSYSLTISRVEAEDAATYYCQQWTSTPPTFGGGTKLEIKR | 21 | 98
12 | CD20/CD3 BsMab with common VL (SEQ ID NO: 3) N93G (bispecific antibody, V domains shown) VH 1: QVQLQQPGAELVKPGASVKMSCKASGYTFTSYNMHWVKQTPGRGLEWIGAIYPGNGDTSYNQKFKGKATLTADKSSSTAYMQLSSLRSEDSAVYYCARSTYYGGDWYFNVWGAGTTVTVSA VH 2: EVQLQESGAELARPGASVKMSCKASGYTFTSYTMHWVKQRPGEGLEWIGYINPSSGYTKYNQKFKDKATLTADKSSSTAYMELSSLTSEDSAVYYCARWQDYDVYFDYWGEGTTLTVSS VL: QIVLSQSPAILSASPGEKVTMTCRASSSVSYIHWFQQKPGSSPKPWIYATSNLASGVPVRFSGSGSGTSYSLTISRVEAEDAATYYCQQWTSGPPTFGGGTKLEIKR | 15 | 21
13 | CD20/CD3 BsMab with common VL (SEQ ID NO: 3) N93Y (bispecific antibody, V domains shown) VH 1: QVQLQQPGAELVKPGASVKMSCKASGYTFTSYNMHWVKQTPGRGLEWIGAIYPGNGDTSYNQKFKGKATLTADKSSSTAYMQLSSLRSEDSAVYYCARSTYYGGDWYFNVWGAGTTVTVSA VH 2: EVQLQESGAELARPGASVKMSCKASGYTFTSYTMHWVKQRPGEGLEWIGYINPSSGYTKYNQKFKDKATLTADKSSSTAYMELSSLTSEDSAVYYCARWQDYDVYFDYWGEGTTLTVSS VL: QIVLSQSPAILSASPGEKVTMTCRASSSVSYIHWFQQKPGSSPKPWIYATSNLASGVPVRFSGSGSGTSYSLTISRVEAEDAATYYCQQWTSYPPTFGGGTKLEIKR | 12 | 22
